# Columns and labels:
# [1] = target: the molecule itself; experiment: SEC; Superdex 200 5/150 GL, PBS pH 7.4 with 1 mM DTT, room temperature; high hPrx1 concentrations (e.g. 20 uM): peak at 3.9 min
# [2] = target: the molecule itself; experiment: SEC; Superdex 200 5/150 GL, PBS pH 7.4 with 1 mM DTT, room temperature; low hPrx1 concentrations (e.g. 0.5 uM): peak at 5.2 min
protein,measurement,setting,value
"human peroxiredoxin 1 (enzyme, UniProt Q06830 1-199, looked up, human peroxiredoxin 1 (hPrx1), recombinant; The protein is an obligate homodimer; five dimers form a ring-shaped decamer; It was used in the reduced state, with 1 mM DTT in all measurements; also called hPrx1; human Prx1; source: E. coli BL21(DE3), purified from bacterial lysates; reduced with 10 mM DTT before all experiments) MSSGNAKIGHPAPNFKATAVMPDGQFKDISLSDYKGKYVVFFFYPLDFTFVCPTEIIAFSDRAEEFKKLNCQVIGASVDSHFCHLAWVNTPKKQGGLGPMNIPLVSDPKRTIAQDYGVLKADEGISFRGLFIIDDKGILRQITVNDLPVGRSVDETLRLVQAFQFTDKHGEVCPAGWKPGSDTIKPDVQKSKEYFSKQK",stoichiometry N,[1],10
same,stoichiometry N,[2],2
